Reference: paper PMC5034536, “Molecular insights into substrate recognition and catalytic mechanism of the chaperone and FKBP peptidyl-prolyl isomerase SlyD” (BMC Biology, 2016)
Where two headings read alike, the source gives them in different places.

How the values were obtained:
[1] = molecular target: full-length SlyD from Thermus thermophilus (TtSlyDFL) (Thermus thermophilus)
[2] = molecular target: chimeric TtSlyD construct in which the IF domain is replaced by the flap loop from human FKBP12 (TtSlyDΔIF) (Thermus thermophilus | human) (UniProt P62942)
[3] = molecular target: full-length SlyD from Thermus thermophilus (TtSlyDFL) (Thermus thermophilus); remark: listed apart in the source
[4] = molecular target: chimeric TtSlyD construct in which the IF domain is replaced by the flap loop from human FKBP12 (TtSlyDΔIF) (Thermus thermophilus | human) (UniProt P62942); remark: listed apart in the source
[5] = molecular target: chimeric TtSlyD construct in which the IF domain is replaced by the flap loop from human FKBP12 (TtSlyDΔIF) (Thermus thermophilus | human) (UniProt P62942); remark: listed apart in the source
[6] = molecular target: TtSlyDFL Y63F (Thermus thermophilus)
[7] = molecular target: chimeric TtSlyD construct in which the IF domain is replaced by the flap loop from human FKBP12 (TtSlyDΔIF) (Thermus thermophilus | human) (UniProt P62942); remark: listed apart in the source
[8] = molecular target: full-length SlyD from Thermus thermophilus (TtSlyDFL) (Thermus thermophilus); remark: listed apart in the source
[9] = molecular target: chimeric TtSlyD construct in which the IF domain is replaced by the flap loop from human FKBP12 (TtSlyDΔIF) (Thermus thermophilus | human) (UniProt P62942); remark: listed apart in the source
[10] = molecular target: full-length SlyD from Thermus thermophilus (TtSlyDFL) (Thermus thermophilus); remark: listed apart in the source

Row | Substance | KD1 (site 1, IF domain) [1] [µM] | KD2 (site 2, FKBP domain) [1] [µM] | N1 (site 1, IF domain) [1] | N2 (site 2, FKBP domain) [1] | dH1 (site 1, IF domain) [1] [kcal/mol] | dH2 (site 2, FKBP domain) [1] [kcal/mol] | Kd [2] [µM] | dH [2] [kcal/mol] | stoichiometry N [2] | KD1 (site 1, IF domain) [3] [µM] | KD2 (site 2, FKBP domain) [3] [µM] | N1 (site 1, IF domain) [3] | N2 (site 2, FKBP domain) [3] | dH1 (site 1, IF domain) [3] [kcal/mol] | dH2 (site 2, FKBP domain) [3] [kcal/mol] | further results
1 | S2-P25N/P29N peptide (from UniProt P0A7V0 20-34) | 0.234 | 8.33 | 0.93 | 1.18 | -16.8 | -2.3 | – | – | – | – | – | – | – | – | – | –
2 | S2-P25A/P29E peptide (from UniProt P0A7V0 20-34) | 1.45 | 44 | 1.13 | 1.09 | -14.1 | -5.9 | – | – | – | – | – | – | – | – | – | Kd [4]: 29 µM; dH [4]: -6.3 kcal/mol; stoichiometry N [4]: 0.84
3 | S2 peptide | 0.15 | 3.16 | 0.98 | 1.05 | -14.8 | -8.9 | 14.4 | -10 | 0.91 | – | – | – | – | – | – | Kd [5]: 12.2 µM; dH [5]: -5.9 kcal/mol; stoichiometry N [5]: 0.88; KD1 (site 1, IF domain) [6]: 0.03 µM; KD2 (site 2, FKBP domain) [6]: 1.58 µM; N1 (site 1, IF domain) [6]: 0.81; N2 (site 2, FKBP domain) [6]: 0.78; dH1 (site 1, IF domain) [6]: -11.3 kcal/mol; dH2 (site 2, FKBP domain) [6]: -6 kcal/mol
4 | SlpA linker P5T peptide | – | – | – | – | – | – | – | – | – | – | – | – | – | – | – | Kd [3]: 130 µM; dH [3]: -0.9 kcal/mol; stoichiometry N [3]: 1.76
5 | S2-P25A peptide (from UniProt P0A7V0 20-34) | – | – | – | – | – | – | 12.1 | -11.7 | 0.91 | 0.129 | 7.04 | 0.92 | 1.02 | -16.6 | -8.5 | kcat/KM of peptidyl-prolyl cis/trans isomerization of the S2-P25A peptide, NMR lineshape analysis, 25 °C, 0.2 μM enzyme [7]: 2.48e+08 M⁻¹ s⁻¹; kcat/KM of peptidyl-prolyl cis/trans isomerization of the S2-P25A peptide, NMR lineshape analysis, 25 °C, 0.2 μM enzyme, peptide 10–1000 μM [8]: 3.68e+08 M⁻¹ s⁻¹; kcat/KM of peptidyl-prolyl cis/trans isomerization of the S2-P25A peptide, NMR lineshape analysis, 25 °C, 0.2 μM enzyme [9]: 2.84e+08 M⁻¹ s⁻¹; KM of peptidyl-prolyl cis/trans isomerization of the S2-P25A peptide (cis form), Michaelis-Menten fit of NMR lineshape data, 25 °C [10]: 2000 µM

Second part, led by results:

Row | KD1 (site 1, IF domain) [1] [µM] | KD2 (site 2, FKBP domain) [1] [µM] | N1 (site 1, IF domain) [1] | N2 (site 2, FKBP domain) [1] | dH1 (site 1, IF domain) [1] [kcal/mol] | dH2 (site 2, FKBP domain) [1] [kcal/mol] | Kd [2] [µM] | dH [2] [kcal/mol] | stoichiometry N [2] | KD1 (site 1, IF domain) [3] [µM] | KD2 (site 2, FKBP domain) [3] [µM] | N1 (site 1, IF domain) [3] | N2 (site 2, FKBP domain) [3] | dH1 (site 1, IF domain) [3] [kcal/mol] | dH2 (site 2, FKBP domain) [3] [kcal/mol] | Substance | further results
6 | – | – | – | – | – | – | 17.1 | -8.1 | 0.77 | 0.855 | 18.8 | 0.76 | 0.91 | -15.8 | -2.3 | S2-W23A peptide (from UniProt P0A7V0 20-34) | –
7 | – | – | – | – | – | – | 13.8 | -10.8 | 0.69 | 0.513 | 5.68 | 0.88 | 1.02 | -15.8 | -2.7 | S2-P29E peptide (from UniProt P0A7V0 20-34) | –
